Test results from US20230119254A1, “SYNERGISTIC AND TARGETING COMPOSITIONS FOR TREATMENT OF ARTERIAL AND VENOUS THROMBOSIS” (AstraZeneca AB, priority 2020, published 2023).
Entries after “also recorded” stand apart in the source; their conditions may differ. Like-named read-outs stand apart in the source and are kept apart here.

Assays:
[1] = test system: thrombin generation in human platelet rich plasma; experiment: Thrombin generation by calibrated automated thrombography (CAT) in ADP-activated human PRP; assay type: cell-based; settings: for peak thrombin concentration / time to peak thrombin: 20 uM ADP-activated human platelets, equal molar concentrations
Experimental: Shown are thrombograms of nanomolar thrombin that were generated in human platelet rich plasma activated with […].
Thrombin generation in citrated human platelet rich plasma (PRP) was quantified by calibrated automated thrombography (CAT) using the Thrombinoscope system (Synapse), according to methods developed by Hemker et al. Aliquots of PRP were incubated with agents for 15 min at room temperature, and then for 5 min at 37° C. in wells of 96-well plates. Thrombin generation was initiated by addition of 0.5 pM tissue factor and CaCl2 to 16.7 mM and monitored in a microtiter plate fluorometer (Fluoroskan Ascent, Thermo Electron Corp., Vantaa, Finland). Thrombograms (nM thrombin generated vs. time) were generated using the Thrombinoscope software, as were key thrombin generation parameters: lag time to onset of thrombin generation (min), peak thrombin concentration (nM), time to peak thrombin (min), and endogenous thrombin potential (ETP; integrated area under the thrombogram curve).
The effects of APT102, annexin V, APT102+annexin V, and APT402 at equal molar concentrations on thrombin generation from 20 uM ADP-activated human platelets were compared using CAT assays (FIG. 3). […] These features were mimicked by APT402.

[2] = test system: peripheral blood mononuclear cells (PBMC) from anesthetized rabbits; experiment: LPS-induced Factor X activation in rabbit PBMC; assay type: cell-based; settings: rabbit PBMCs
Experimental: (§1) Peripheral blood mononuclear cells were incubated with LPS (1 mg/ml) to induce tissue factor expression and FX activation measured in the presence of FVII, FX and chromogenic substrate 52765.
(§2) The inhibitory activity on FX activation was assayed using peripheral blood mononuclear cells (PBMC) purified from normal human donors and anesthetized rabbits by standard methods. […] As expected, APT102 had no effect on PBMC pro-coagulant activity.

[3] = test system: IVC fibrosis (collagen deposition); experiment: Chronic murine electrolytic injury model (EIM) of DVT, fibrosis; assay type: in vivo; settings: mice, 1.0 mg/kg ip bolus daily for 14 days; for reduction of collagen deposition: Masson's trichrome 14 days post DVT induction
From the text: In a chronic fibrotic study, mice were randomized and blinded into the following groups (n=5-12/group).
Collagen deposition was stained with Masson's trichrome 14 days post DVT induction.

[4] = test system: peripheral blood mononuclear cells (PBMC) from normal human donors; experiment: LPS-induced Factor X activation in human PBMC; assay type: cell-based; settings: human PBMCs
Experimental: as §1, §2

[5] = test system: human platelet-rich plasma (PRP); experiment: ADP-induced human platelet aggregation in platelet-rich plasma; assay type: cell-based; settings: ADP-activated, light transmission, 6 min
Experimental: FIGS. 1A and 1B show the effect of apyrase APT102 used as such and of a fusion protein thereof, APT402, on platelet aggregation in an ex vivo reaction mixture comprising human platelet-rich plasma (PRP) activated with 20 μM ADP. […] X axis is the assay time (6 min duration), Y axis is the light transmission. […] Arrows indicate addition of ADP and apyrases.
as §2

[6] = test system: thrombin generation; experiment: Thrombin generation during and after bolus plus infusion in rabbits; assay type: in vivo, rabbit; settings: for thrombin generation: 0.2 mg/kg bolus then 24 μg/kg/min for 120 min
[7] = test system: thrombotic sites of injured arteries; settings: rabbit, in vivo
Experimental: A. APT402 was conjugated to the fluorescent dye (LS288); B. Fluorescent intensity in the injured artery of the rabbit treated with APT402 at 0.2 mg/kg bolus followed by 12 mg/kg/min for 120 min. Each bar represents the mean of 3 readings. C.
A near infra-red (NIR) fluorescent dye (LS288, Ex/Em 773/793) in methanol was conjugated to the functional amines of APT402 (˜1:1). […] For in vivo imaging of the thrombus by fluorescent molecular tomography (FMT), a custom built, fiber-based, portable, video-rate system was used as described (CITE).

[8] = Pharmacokinetics (ADPase activity) after single IV bolus in rabbits
[9] = test system: IVC thrombosis; assay type: in vivo, mice; settings: for reduction of thrombus weight: mice
Experimental: An electrical injury model of venous thrombosis was used for acute study (Diaz J A et al. Thromb Haemost. 104: 366-375, 2010.
Mice were randomized into the following four groups (n=10/group).
The EIM consistently generated IVC thrombosis in all mice with the mean thrombus weight of 22.5 mg. Thrombus weight, BT, APTT and TCT were measured 48 h post DVT induction.

[10] = Haemostasis parameters in healthy rabbits with bolus plus infusion; assay type: in vivo, rabbit
[11] = rabbit, in vivo, iv, 0.2 mg/kg
[12] = rabbit, in vivo, iv, 0.4 mg/kg
[13] = test system: platelet aggregation; experiment: Ex vivo ADP-induced platelet aggregation after single IV bolus in rabbits; settings: rabbit, 0.40 mg/kg IV bolus
[14] = PK (ELISA) with bolus plus continuous IV infusion in rabbits; settings: rabbit, bolus plus 120 min infusion; significantly decreased 60 min after discontinuation
[15] = test system: arterial thrombosis; experiment: Electrical injury model (EIM) of arterial thrombosis in rabbits; assay type: in vivo, rabbit
Experimental: Rabbits were randomized into the following eleven groups with the treatments initiated 30 min before electrical injury.
Electrical injury generated occlusion in 60% of the rabbits treated with saline within 2 h. Average thrombosis weight was 7.8 mg.

[16] = Malachite green assay of enzymatic kinetic parameters; assay type: biochemical
[17] = test system: rabbit platelet rich plasma; experiment: ADP-induced platelet aggregation in rabbit PRP during and after bolus plus infusion; assay type: in vivo; settings: for ADP-induced (50 uM) platelet aggregation in rabbit PRP: 0.2 mg/kg bolus then 24 μg/kg/min for 120 min
[18] = rabbit, bolus plus 120 min infusion, significantly decreased 60 min after discontinuation

B1: APT102: soluble apyrase, enhanced form of soluble CD39L3 R67G T69R (SEQ ID NO: 2) (protein)
chain: EVLPPGLKYGIVLDAGSSGTRVYVYQWPAEKENNTGVVSQTFKCSVKGSGISSYGNNPQDVPRAFEECMQKVKGQVPSHLHGSTPIHLGATAGMRLLRLQNETAANEVLESIQSYFKSQPFDFRGAQIISGQEEGVYGWITANYLMGNFLEKNLWHMWVHPHGVETTGALDLGGASTQISFVAGEKMDLNTSDIMQVSLYGYVYTLYTHSFQCYGRNEAEKKFLAMLLQNSPTKNHLTNPCYPRDYSISFTMGHVFDSLCTVDQRPESYNPNDVITFEGTGDPSLCKEKVASIFDFKACHDQETCSFDGVYQPKIKGPFVAFAGFYYTASALNLSGSFSLDTFNSSTWNFCSQNWSQLPLLLPKFDEVYARSYCFSANYIYHLFVNGYKFTEETWPQIHFEKEVGNSSIAWSLGYMLSLTNQIPAESPLIRLPIEPPV
Q: For B1, which peak thrombin concentration [1] is on record?
A: The peak thrombin concentration was “modest inhibitory effect”.

Q: What about the “time to peak thrombin” value [1] of the same molecule?
A: The value was “modest inhibitory effect”.

Q: What about the “reduction in LPS-induced FX activation” value [2] of the same molecule?
A: The value was “no effect”.

Q: And the “deaths, increased bleeding or gross side effects” value [3]?
A: The value was “no deaths or increased bleeding or gross side effects”.

Q: And the “reduction of collagen deposition” value [3]?
A: The value was 11%.

Q: What about the “reduction in LPS-induced FX activation” value [4] of the same molecule?
A: Its value is “no effect”.

Q: And the “inhibition of ADP-induced human platelet aggregation” value [5]?
A: The value was “dose-dependently inhibits”.

B2: APT402: fusion protein of apyrase APT102, 20 amino acid linker and annexin V (SEQ ID NO: 7-10) (protein)
chain: MMSFVSLLLVGILFHATQADAPEVLPPGLKYGIVLDAGSSGTRVYVYQWPAEKENNTGVVSQTFKCSVKGSGISSYGNNPQDVPRAFEECMQKVKGQVPSHLHGSTPIHLGATAGMRLLRLQNETAANEVLESIQSYFKSQPFDFRGAQIISGQEEGVYGWITANYLMGNFLEKNLWHMWVHPHGVETTGALDLGGASTQISFVAGEKMDLNTSDIMQVSLYGYVYTLYTHSFQCYGRNEAEKKFLAMLLQNSPTKNHLTNPCYPRDYSISFTMGHVFDSLCTVDQRPESYNPNDVITFEGTGDPSLCKEKVASIFDFKACHDQETCSFDGVYQPKIKGPFVAFAGFYYTASALNLSGSFSLDTFNSSTWNFCSQNWSQLPLLLPKFDEVYARSYCFSANYIYHLFVNGYKFTEETWPQIHFEKEVGNSSIAWSLGYMLSLTNQIPAESPLIRLPIEPPVGSTSGGSTSGGSTSGSGATIAQVLRGTVTDFPGFDERADAETLRKAMKGLGTDEESILTLLTSRSNAQRQEISAAFKTLFGRDLLDDLKSELTGKFEKLIVALMKPSRLYDAYELKHALKGAGTNEKVLTEIIASRTPEELRAIKQVYEEEYGSSLEDDVVGDTSGYYQRMLVVLLQANRDPDAGIDEAQVEQDAQALFQAGELKWGTDEEKFITIFGTRSVSHLRKVFDKYMTISGFQIEETIDRETSGNLEQLLLAVVKSIRSIPAYLAETLYYAMKGAGTDDHTLIRVMVSRSEIDLFNIRKEFRKNFATSLYSMIKGDTSGDYKKALLLLCGEDD
modifications: CDS (1)..(2397)
Q: Which results are given for B2?
A: thrombin generation ([6]; at 60 and 110 min): effectively attenuated; thrombin generation ([6]; at 180 min): returned to the baseline level; inhibition of thrombin generation over time [6, 18]: maintained up to 120 min during infusion; binding to thrombus [7]: bound to thrombus; signal in the non-injured control carotid [7]: no increased signal; extension of elimination half-life compared to annexin V ([8]; 6 h vs 20 min): 18 fold; distribution phase half-life ([8]; rabbit, 0.40 mg/kg IV bolus): 0.5 h; time of maximal activity in the plasma after administration ([8]; rabbit, 0.40 mg/kg IV bolus, ADPase activity): 30 min; peak thrombin concentration [1]: mimicked; time to peak thrombin [1]: mimicked; inhibition of thrombin generation ([1]; ADP-activated human PRP): comparable inhibitory effects; reduction of thrombus weight ([9]; 1.0 mg/kg ip bolus daily for 2 days): 53%; reduction of thrombus weight ([9]; high dose: 0.2 mg/kg ip bolus then 0.09 mg/kg/h sc for 48 h): 65%; reduction of thrombus weight ([9]; low dose: 0.2 mg/kg ip bolus then 0.03 mg/kg/h sc for 48 h): 44%; prolongation of BT ([9]; mouse, in vivo): did not cause detectable prolongation; prolongation of TCT ([9]; mouse, in vivo): did not cause detectable prolongation; prolongation of aPTT ([9]; mouse, in vivo): did not cause detectable prolongation; bleeding time ([9]; mouse, in vivo, ip, 1 mg/kg): without increasing bleeding time; ACT vs control animals [10]: no differences; PT vs control animals [10]: no differences; aPTT vs control animals [10]: no differences; bleeding time vs control animals [10]: no differences; platelet counts vs control animals [10]: no differences; time by which detectable in the plasma after administration (ELISA) [11]: ≤ 30 min; elimination half-life (t1/2) [12]: 6 h; deaths, increased bleeding or gross side effects [3]: no deaths or increased bleeding or gross side effects; reduction of collagen deposition [3]: 33%; inhibition of 20 μM ADP-induced ex vivo platelet aggregation ([13]; 1 h after dosing): 90%; inhibition of 20 μM ADP-induced ex vivo platelet aggregation ([13]; 6 h after dosing): 80%; inhibition of 20 μM ADP-induced ex vivo platelet aggregation ([13]; by 10 min after dosing): 95%; APT402 plasma concentration over time [14]: maintained up to 120 min during infusion; thrombus weight compared with any other treatments ([15]; rabbit EIM, 24 ug/kg/min): lowest thrombus weight; occlusion within 2 h ([15]; rabbit EIM, 0.2 mg/kg IV bolus then 12 ug/kg/min): completely prevented occlusion; occlusion within 2 h ([15]; rabbit EIM, 0.2 mg/kg IV bolus then 24 ug/kg/min): completely prevented occlusion; thrombosis weight ([15]; rabbit EIM, infusion 4, 12, 24 μg/kg/min): dose-dependently reduced; bleeding time (BT) ([15]; rabbit, in vivo): did not affect; blood pressure (mean arterial pressure) ([15]; rabbit, in vivo): did not affect; heart rate ([15]; rabbit, in vivo): did not affect; partial thromboplastin time ([15]; rabbit, in vivo): did not affect; prothrombin time ([15]; rabbit, in vivo): did not affect; inhibition of ADP-induced human platelet aggregation [5]: dose-dependently inhibits; also recorded: comparable potency to APT102; enzymatic kinetic parameters for ATP and ADP [16]: comparable to those of APT102; ADP-induced (50 uM) platelet aggregation in rabbit PRP ([17]; at 60 and 110 min): effectively inhibited; ADP-induced (50 uM) platelet aggregation in rabbit PRP ([17]; at 180 min): returned to the baseline level; inhibition of ADP-induced platelet aggregation over time [17, 18]: maintained up to 120 min during infusion
